Measured values taken from patent US8283126B2, “Voltage sensor domains of voltage-dependent ion channel proteins and uses thereof” (The Rockefeller University, priority 2003, dated 2012).

Tests used:
[1] = target: T1, KvAP channel (Aeropyrum pernix, UniProt Q9YDF8); test: Electrophysiological assay of KvAP channels reconstituted into planar lipid bilayers; format: biochemical
T1 construct: made in house; host or cells: Escherichia coli
T1 sequence (Q9YDF8 14-295 limits assumed): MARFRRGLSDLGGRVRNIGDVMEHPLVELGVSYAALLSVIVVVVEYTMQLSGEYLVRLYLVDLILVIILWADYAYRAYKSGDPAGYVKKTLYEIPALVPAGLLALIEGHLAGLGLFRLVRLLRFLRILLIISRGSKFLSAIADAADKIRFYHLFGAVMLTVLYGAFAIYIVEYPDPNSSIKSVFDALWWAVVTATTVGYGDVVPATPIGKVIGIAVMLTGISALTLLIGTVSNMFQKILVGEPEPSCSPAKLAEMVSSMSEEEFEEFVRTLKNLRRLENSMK
Source text: KvAP channels were expressed in Escherichia coli, extracted with decylmaltoside, purified and reconstituted into planar lipid bilayers of 1-palmitoyl-2-oleoyl-phosphotidylglycerol (POPG) and 1-palmitoyl-2-oleoyl-phosphotidylethanolamine (POPE) for functional studies.
To examine the structural similarity of KvAP to eukaryotic K^+ channel pores, the ability of a small protein toxin from scorpion venom to inhibit the KvAP channel was examined.
To determine the orientation of channels incorporated into planar lipid bilayers, we used CTX, which causes inhibition by binding only to the extracellular side. KvAP channels open in response to membrane depolarization (e.g., when the voltage of the CTX-insensitive (intracellular) side of the membrane is made positive relative to the CTX-sensitive (extracellular) side. KvAP channels are strongly voltage-dependent, opening as a function of membrane voltage, similar to Shaker and other eukaryotic neuronal Kv channels.
The isolate voltage sensor immobilized to a resin in the column efficiently purifies toxins from tarantula venom (FIG. 3A).

[2] = target: T2, isolated voltage sensor domain (S1-S4) of KvAP (Aeropyrum pernix, UniProt Q9YDF8); test: Binding of toxins to isolated voltage sensor domain immobilized on Co2+ affinity column, reverse phase HPLC of eluate; conditions: voltage sensor domain on Co2+ resin column versus control column without domain; elution with 400 mM imidazole
T2 construct: encoding Met1 to Lys147 was cloned into a pQE60 expression vector; made in house; host or cells: E. coli XL1-Blue
T2 sequence (Q9YDF8 with tags, fused parts or gaps): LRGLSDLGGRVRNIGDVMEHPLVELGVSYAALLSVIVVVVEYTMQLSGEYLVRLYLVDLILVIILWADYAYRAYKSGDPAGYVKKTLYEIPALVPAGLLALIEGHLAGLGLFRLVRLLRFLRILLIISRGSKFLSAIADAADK
Method: Isolated voltage sensor was expressed and purified according to Example 5. To generate the voltage sensor domain column for isolation of toxins, 0.1 ml of Co^2+ resin was washed with water and then equilibrated with Buffer A (20 mM Tris pH 8.0, 100 mM KCl, and 10 mM DM) in an eppendorf tube by 3-4 rounds of centrifugation (500 rpm) to collect resin, careful removal of the supernatant with a pipette and resuspension of the resin in either 1 ml of water or 0.4 ml of Buffer A.
Approximately 2 mg of voltage sensor domain was added to the equilibrated resin. The resin and voltage sensor domain protein were incubated for ˜15 minutes. The resin was then applied to a micro chromatography column (Biorad). Samples of the voltage sensor domain prior to addition to the resin and the flow through after addition of resin to the column was kept and later run on an SDS gel to ensure that an excess of protein has been added to the resin and saturated with protein. […]
Remaining protein was eluted from both columns with 0.1 ml of Buffer A containing 400 mM imidazole and reduced with 50 mM DTT at 37° C. for 2 hours to improve separation by reverse phase high performance liquid chromatography (HPLC). […] Peaks are collected and analyzed by MALDI-TOF mass spectrometry focusing on the low molecular weight range (˜800-10,000 Da).

Substance: VSTX1 (ECGKFMWKCKNSNDCCKDLVCSSRWKWCVLASPF)
- inhibition of KvAP channel currents ([1]; currents elicited by a +100 mV depolarization): inhibits KvAP channel currents
- binding to the isolated voltage sensor domain [2]: binds to the domain

Substance: charybdotoxin [CTX, reference compound]
- Kd ([1]; KvAP channel in planar lipid bilayers, read-out: dissociation constant (Kd) for inhibition of the KvAP channel): ~400 µM
